Results reported in article doi:10.1101/2024.03.08.584184.

Target: cGAS (Homo sapiens, UniProt Q8N884 1-522)
Experiment: EMSA

Chain of cGAS (Q8N884 whole entry): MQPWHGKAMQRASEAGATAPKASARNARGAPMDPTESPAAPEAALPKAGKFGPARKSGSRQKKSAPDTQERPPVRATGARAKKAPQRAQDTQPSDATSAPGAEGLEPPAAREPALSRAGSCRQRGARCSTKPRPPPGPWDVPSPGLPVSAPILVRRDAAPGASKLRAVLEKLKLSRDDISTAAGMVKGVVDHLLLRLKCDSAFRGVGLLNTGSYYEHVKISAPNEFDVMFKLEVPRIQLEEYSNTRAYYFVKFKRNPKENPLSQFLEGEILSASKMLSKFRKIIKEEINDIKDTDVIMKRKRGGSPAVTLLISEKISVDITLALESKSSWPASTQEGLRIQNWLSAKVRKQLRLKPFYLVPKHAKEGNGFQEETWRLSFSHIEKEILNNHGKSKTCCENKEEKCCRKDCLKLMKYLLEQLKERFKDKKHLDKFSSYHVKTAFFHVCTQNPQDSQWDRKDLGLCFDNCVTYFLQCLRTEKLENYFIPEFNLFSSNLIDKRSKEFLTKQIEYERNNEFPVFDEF

B1: 70bp Oligo 2 (dsDNA)
DNA 1: GGCAAGCAGGCCTTCTCATGCGTATATCAACGTGTCCGTTTGAGATATCAGTGTTCTCTTTCCCGGTTAA
DNA 2: TTAACCGGGAAAGAGAACACTGATATCTCAAACGGACACGTTGATATACGCATGAGAAGGCCTGCTTGCC
B1: binds.
